Measurements: the DeepSol protein solubility set

Assay: soluble on expression in E. coli; label from the status in PepcDB or PDB records
In the case of “MAAEDELQLPRLPELFETGRQLLDEVEVATEPAGSRIVQEKVFKGLDLLEKAAEMLSQLDLFSRNEDLEEIASTDLKYLLVPAFQGALTMKQVNPSKRLDHLQRAREHFINYLTQCHCYHVAEFELPKTMNNSAENHTANSSMAYPSLVAMASQRQAKIQRYKQKKELEHRLSAMKSAVESGQADDERVREYYLLHLQRWIDISLEEIESIDQEIKILRERDSSREASTSNSSRQERPPVKPFILTRNMAQAKVFGAGYPSLPTMTVSDWYEQHRKYGALPDQGIAKAAPEEFRKAAQQQEEQEEKEEEDDEQTLHRAREWDDWKDTHPRGYGNRQNMGAAAAAALEHHHHHH”, the “soluble on expression in E. coli” value is reported as “not soluble”.
With “MAAGESMAQRMVWVDLEMTGLDIEKDQIIEMACLITDSDLNILAEGPNLIIKQPDELLDSMSDWCKEHHGKSGLTKAVKESTVTLQQAEYEFLSFVRQQTPPGLCPLAGNSVHADKKFLDKHMPQFMKHLHYRIIDVSTVKELCRRWYPEDYEFAPKKAASHRALDDISESIKELQFYRNNIFKKKTDEKKRKIIENGETEKPVS” the “soluble on expression in E. coli” value was “soluble”.
In the case of “MAAGSMDGIFRNIFEGCISSCDSSIQRRPYHKNCGCALHERSRGGGSATPCRHGRSEVVMFPIQRSWSEGNSLALHLASSSSSSNLQSLSSSSSISTLASLSSTVSDIDSPI”, the “soluble on expression in E. coli” value is reported as “soluble”.
With “MAANQNVTKKKKAVIGGIFKAELNNFLMKELAEDGYSGVEVRSTPARAEVIIMATRTQNVLGERGRRIKELTSVVQKRFGFEEGSVELYAEKVSNRGLCAVAQCESLRYKLVGGLAVRRACYGVLRFIMESGAQGVEVIVSGKLRGQRAKAMKFVDGLMIHSGHPVNDYIQQAVRHVQLRQGVIGIKVKIMLPYDPRGQNGPRNALPDHVQIVEPQEEVLPKEPHSQHKEEKKDVQVPAAQPVAPVQ” the “soluble on expression in E. coli” value was “not soluble”.
For “MAAPDIKTIVNGINIKQSFAIQNQIRDGGDGELAKPRYQATVVWDSGYHTTSNVTDGQIIIGDEPVHYGGEGMGITPQDLLLTAVGHCLAASYIGGLSAAHINVESLHVHVSGRVNFRAAFAVEPGNPGFEDISVIVEIQTDAPQEQVTALLEKLKHMAPIPDTIMRPVPVNIEIRHQLK”, the “soluble on expression in E. coli” value was “not soluble”.
In the case of “MAAQAVSLLREVARLEAPLEELRALQSVVQAVPLHELREQAAELRLRPLFSLLNQNNREQTALCVSILERLLQAVEPIHLARNLRLDLQRGLTHPDDSVKTLTLSQIGRIVENSEAVTEILNNAELLKQIVYCIGGENLSVAKAAIKSLSRISLTQAVLEALFESNLLDDLKNVMKTNDVVRYRVYELIIDISSVSSESLNYCTTSGLVTQLLKELTGEDVLVRATCIEMVTSLAYTHHGRQYLAQEGVIDQISNIIVGADSDPFSGFYLPGFVKFFGNLAVMDSPQQICERYPVFLEKVFEMADSQDPTMIGVAVDTVGILGSSVEGKQVLQKTGTRFERVLMRVGYQAKNASTELKIRCLDAVSSLLYLSPEQQTDDFLGMTESWFSSMSRDSLELFRGISNQPFPELHCAALKVFTAIADQPWAQRLMFNSPGFVEFVMDRSVEHDKASKDAKYELVKALANSKTVAEIFGNSNYLRLRAYLSEGPYYVKPVATTAVEGAD”, the “soluble on expression in E. coli” value is reported as “soluble”.
In the case of “MAARDPEATKARIFEAAVAEFARHGIAGARIDRIAAEARANKQLIYAYYGNKGELFASVLEKKMLDLAISVPVDPDDIEGWIDRLLDYHAAHPELLRLLFWEGMEYGTAELPHEAERQEHYARKVAAVRDGQERGVITDAIPAPDLLFLLVAMANWAVVVPQMKRILVGGGDAGTDGLRDSIKKAARRIVDR”, the “soluble on expression in E. coli” value is reported as “not soluble”.
For “MAASGEEDMSELSPAAAPNLDWYEKPEETHAPEVDLETVIPPAQEPSNPAEPFCPRDLVPVVFPGPVSQEDCCQFTCELLKHILYQRHQLPLPYEQLKHFYRKAPQAEDTARKKAWLATEARNRKCQQALAELESVLSHLRDFFARTLVPQVLILLGGNALSPKEFYELDLSRLAPFGVDQGLNTAACLRRLFRAIFLADPFSELQTPPLMGTIVMVQGHRDCGEDWFQPKLNYRVPSRGHKLTVTLSCGRPSVPAMASEDYIWFQAPVTLKGFHE”, the “soluble on expression in E. coli” value was “not soluble”.
For “MAASRDIFAPDFRRRPYWWEGYEPPECGEDTLPASADVAIVGGGYTGVCCALALREAGIEAVVLEAGRPGEGASTRSGGQVSGGVNVQKKALAAVGESAGQRAERLAARLRDAAASMAYVESLIERYAIECGWHRTGRLTTMWVPAHYQSWQARLDQLNACTGSQARMIPREELAAEIGSSVYHGAALIEHAGHLQPAQLYGGMLRAARDAGARVLGRTPVERIERRAGGYDVHTARGTVRAGQVVIATNGYTGANLGGLKRRIVPVCTHMITTEALPPDLAASLLPTNRAVSESRRVVNHYRLSPDGRRLLFGGRARFVPTDEATTARLLYRAMLKRFPQLAGTRITHSWGGNVAMTLDSMPHIGGADGLHYALGCNGSGVAMMSYLGHCVGRKIATQSGEPINAFDMGEIPGHPFYFGNPWFLFAIGSWYQARDAYDHWRARLEHHHHHH”, the “soluble on expression in E. coli” value was “not soluble”.
In the case of “MAAVSIVFEAPDNYGGAPAVSKKPIDFDHLAQQTMGDKDLEIEVLQLFSRSARAALHEMAGADNKTVTATAHRLKGSAQAVGASAVSAAAAAVEEKGNDSALIAKLAAAIVEAENFILKLCR”, the “soluble on expression in E. coli” value is reported as “not soluble”.
With “MACFLARFQFISPDSPATKAVTLQIKRSGQDMYACITGHSYSAPVFTVECKLKPDAEWVRDCMASFKEQMEAEGFLLNEGTSESTLPAQPAKKADLTLHDISAFFHLPVKAAASCLGVSQTYLKILCRRLGIDRWPYRKVASVKKHM” the “soluble on expression in E. coli” value was “not soluble”.
In the case of “MADDLGDEWWTQGDNSDVPEVEEETEHAEEKQPIKSTPKKRKVEKQIPDATKKKKATVKKECFITQERSEEKPDNESNKNKKRRKKKKTITDVLTSSKPVPGSPVDLVSLLKTYHSQTRSVIEQEELTLQDSCFLSCNDLTHSLSSYLKEVCPKWAKMQKQHTQTSSVVLLIVCGSALRTIDLIKQLVTFKGQAKVLKLFAKHIKVEEQIKSLSKGVTHIAVGTPGRICALLEKEGLTVQGLRYLVLDWNYRDQKQRRMVDVPEVKGDLLKMMDQGLIQSCREGTVKIGLF”, the “soluble on expression in E. coli” value is reported as “not soluble”.
With “MADIVQLKENGVVKYMKTHADAIDGVEGKLVKAVGNETVLGTKNFQDGIQIGGKSVSVNAKPTYEVVKDYWDGTGAYLTESQSVTISNSSNVDEIVLIFSRYNDNGGGIVHSIPVTPNITKLKYELPAVAWVGSASTDPTIAYKKISISKSGTSLVITGDTANTLNEANKKIVFREIGVMRRK” the “soluble on expression in E. coli” value was “not soluble”.
For “MADKLDEIIDKVASGQRKKDTIEDTEEEGTRKRKIEQFEDIERPNELSGFKKQKIEENSEIHAEETEESVEAQMVMKKPSEEPELKRRKILIHMEPSITETNPMRIWTVADDLALLTAVAHVQCIRFIHNSLTFSRKFTFSDVEERYCQLMFDEEISKSAKVRLDAMPHRLKAQIEARTPFTRNEERTLMELAENQLKNARKERQDVENHTVLTILHFKKILDGNRQSFHKSRTPQVLSDHYRRIKGYRSEQGNNYNWQALEALTDGNTMDFDINAPLQAARSRYAAISRRPALSGILNRFKTSGSVPDNAIAMINGQFLQYAMTGKSVTMGRASLNEKIDIDLSKEGPATKVLEGRRQLFPVNKR”, the “soluble on expression in E. coli” value was “soluble”.
For “MADLFDGMKRRMDALIAERFGMKVNINGTDCIVVESDFLAELGPVEGNGKNVVVFSGNVIPRRGDRVVLRGSEFTVTRIRRFNGKPQLTLEENNGGKGA”, the “soluble on expression in E. coli” value was “soluble”.
With “MADLLDKIMGSSSSNRIPKRDNRMNQDKDEPTSKRSAPMFSTPKSTTPIGRDSFATMDTMNVQMNMFPVDIKDMPHKIQRFQVDVIVCSSNGKQINANLGVLAAKGDVNSHNRRLAQYYIMRTVHDKLLVKFSGKSHHFLAYDCAATLYLPEGVYTGDDQEEVTLTIDDFPKEEWKFVSKLSRRKDDSYLVVLKPAGFVYTQGEVAQEEANRMELTRIIEIVTSQKLNNEDYLQFGNATFPRLSPPHSEPDAISEIRSGFAKVSRLSQNGGGKAFMTVDTKISPFYKDTSVIKFSSNKLSEMKGGGGGRGGYGRSDSRDSRGGYRGGRSDSRDFRGVYGNRGGNDRYRDESRGRRDMYDSRRDSGSSNGADYSPSDAAELEHAFGERGNTKRCIEEALKGLDVECTHLKGNLIRVSSIAENNAENTSFMMKDDKGEREVTVAEYFLLQYNIKLKYPRLPLVVSKRFKHESFFPMELLRIAPGQRIKVNKMSPTVQSAMTGRNASMPQHHVKLVQDILRDNLKLEQNKYMDAFGIKLMSTEPIQMTAKLLPPAQIKFKGQTYMPDMSRPAFRTQDKFVEPARIRKIGIVVFDNCIQMRQAEDFCDKLSNFCRDNGITVEKDSRDWSIRELNSSDSVAIQNLMKKWLDDRVDILVGIAREKKPDVHDILKYFEESIGLQTIQLCQQTVDKMMGGQGGRQTIDNVMRKFNLKCGGTNFFVEIPNAVRGKAVCSNNETLRKKLLEHVQFIGFEISHGASRTLFDRSRSQMDGEPSVVGVSYSLTNSTQLGGFTYLQTQKEYKLQKLDEFFPKCVRSYKEHSKTLPTRIVIYRVGAGEGNFNRVKEEVEEMRRTFDKIQPGYRPHLVVIIAQRASHARVFPSCISGNRATDQNIPSGTCVENVLTSYGYDEFILSSQTPLIGTVRPCKYTILVNDAKWSKNELMHLTYFRAFGHQVSYQPPSVPDVLYAAENLAKRGRNNYKIHQRYVNLQAVENRIIKDHSELINEDMREELAAAIVDEMSVAMNGMTIPKRNFWA” the “soluble on expression in E. coli” value was “not soluble”.
With “MADNDFLSGEAIMVFKKEILDSHSDFTRSLSHQSASPEAYDQENVFSQDFQPFMKQDKETQNSASQPTSEQSLANRDPCTVPDDLREEMMRQRRKEDAFKTALCDAYKRSQACSYGDQCRFAHGVHELRLPMNPRGRNHPKYKTVLCDKFSMTGNCKYGTRCQFIHKIVDGNAAKLASGAHANTSSKSPARNAAAHNHSLFVPQGSTDRSMDLNQSLPIRQSDLVRAFARATRLDVSGYNSTAQLAQYFESQFQRIQQLSSHHH” the “soluble on expression in E. coli” value was “not soluble”.
With “MADNVAGNDRLIWIDLEMTGLDTDRDSIIEIATIVTDAQLNVLAEGPELAIAHSLETLEAMDEWNRNQHRRSGLWQRVLDSQVTHAQAEAQTVAFLGEWIRAGASPMCGNSICQDRRFLHRQMSRLERYFHYRNLDVSTIKELARRWAPAVASGFAKSSAHTALSDVRDSIDELRHYRQFMGTLGGDNGGGVQN” the “soluble on expression in E. coli” value was “soluble”.
For “MADRKLVVVFGATGAQGGSVARALLEDGTFRIRVVTRNPEQRAAKELKQQGAEVVRGDQDDAASMELALAGAHATFIVTNYWETCSQDREVQQPHQWDQVFKQGKLLADLAKRLGLHYVVYSGLENIRKLTAGKLAAGHFDGKGEVEEYFRDIGVPMTSVRLPCYFENLLSYFLPQKAADGKSFLLDLPMGDVPMDGMSVSDLGPVVLSLLKKPEEYVGQNIGLSTCRHTAEEYAALLSKHTGKAVHHAKTTPEDYEKLGFQGAQDLANMFRFYTLKPDRNIHLTLRLNPKAQTLDQWLEQHKGDFAQL”, the “soluble on expression in E. coli” value was “soluble”.
In the case of “MADSTKAGLKKPAFTKVDQLRPGTSGHNVNVKIVSTKMVLQKGRADGPQARQLRISECIVGDETGVIVFTARNDQVDLMKEGSTVTLRNAKIDMYKGSMRLAVDKWGRVEVTEPASFKVKEDTNMSLIEYELVNVVE”, the “soluble on expression in E. coli” value is reported as “soluble”.
With “MADTVKLFPENLVTYKLLGEPDGPHYAHYDLVGGRLVVSKKCVSEAPVKKDAISV” the “soluble on expression in E. coli” value was “not soluble”.
With “MADVEDGEETCALASHSGSSGSKSGGDKMFSLKKWNAVAMWSWDVECDTCAICRVQVMDACLRCQAENKQEDCVVVWGECNHSFHNCCMSLWVKQNNRCPLCQQDWVVQRIGKLEHHHHHH” the “soluble on expression in E. coli” value was “soluble”.
In the case of “MADYTTIAAQPRNEFGKGFARRLRVAGQVPGVIYGVDVEAPIHFSINRLELHAVLRAHGVNAIIELDIEGEKHLTMIKHVDQNVLTLNADHVDLLAIKRGEKVEVEVPVVLTGETAPGTTLVQDADVVLVEADVLSIPEEITFSVEGLDVDSKVLAGDLAMPANTSLVADAETVIASVNHEEVAEEAEETEGEDAEEAPAAEGEE”, the “soluble on expression in E. coli” value is reported as “soluble”.
